Article PMC7199903

Target: recombinant soluble SARS-CoV-2 spike (S) glycoprotein, prefusion-stabilised trimer (2P, GSAS, C-terminal trimerization motif) (SARS-CoV-2)
Experiment: negative-stain EM

“recombinant soluble SARS-CoV-2 spike (S) glycoprotein, prefusion-stabilised trimer (2P, GSAS, C-terminal trimerization motif) (domain or fragment)” showed a stoichiometry N of 3.
